How the values were obtained:
[1] = test system: Odc2_C19 (Odc2); conditions: 50 mM phosphate pH 5.5, 50 μM pyridoxal 5'-phosphate, 37°C; substrate 1-50 mM
From the text: HPLC of o-phthalaldehyde-derivatized amine product (decarboxylation), Michaelis-Menten fit on Odc2_C19 (Odc2)

[2] = substrate: NCCCC[C@H](N)C(=O)O; experiment: HPLC of o-phthalaldehyde-derivatized amine product (decarboxylation), Michaelis-Menten fit; assay type: biochemical, Paucilactobacillus wasatchensis; conditions: 50 mM phosphate pH 5.5, 50 μM pyridoxal 5'-phosphate, 37°C, substrate 1-50 mM
From the text: HPLC of o-phthalaldehyde-derivatized amine product (decarboxylation), Michaelis-Menten fit on Odc1_Lw35 (Odc1)

| Molecule | Km [1] [mM] | Km [2] [mM] | kcat [2] [s⁻¹] |
| --- | --- | --- | --- |
| NCCCC[C@H](N)C(=O)O [L-Lysine] | 20.2 |  |  |
| Odc1_Lw35 (Odc1) (Paucilactobacillus wasatchensis) (protein, full length (native 726 aa), C-terminal His-tag (pEG-His1, BamHI/SalI), E. coli BL21(DE3), Ni-TED purified) MKLLGIACSEEAQKYFKTTRDIIDAEKDSDFTDVAAIVLTEDDLDLINKIDETHFDIPVFLITNDAAKIDKDLRAKIYHLIDDDAKYTNMYDGEIEAAAVEYEKKMMPPFFEELQKYADEGNLSFTTPGHHAGKFFMRHPAGRWLVNYYGENLFRSDLSSSDVAVGDLLTHGGAPLSAEQHAAKVFNADKTYFVMNGTSTSNAIVTSAAVAPGDLVLFDRNNHKSSYISALENAGGIPIYLQTERNPFGFIGGISDAVFNEKHIRELIAKVDPKRAKEKRPIRLAIIELGTYDGSIYDARQVVDRIGSLCDYIQFDSAWVGYEQFIPMMKPSSPLLLDLGPEDPGILVTQSVHKQQAALSQGSQIHKKDKHIKGQKRYITHKRFNNAYMKYTSTSPFYPMYASLDVNAYLMEGKAGAEMWKNTVKLGIEARKRMLNESKLFTPFIPTVVNGKKWEDGDTEEMADNLDFWRFKKGESWHSFEGYADNQYYIDPLKVMFKTPGINMETGEYEDFGIPATILASYLREHGIVPEKSDLNSILFLLTPAETKTKLDNLVNLILRFEDLIEKDEKLENVLPHVYADNASRYRGYTIRQLCQEMHNFYKQSNAKKFQKELFQEATLPEQAMTPYAADKELIRNNAELIPLQDIVGRVALEGGLPYPPGIFVIAPGERWTESAQKYFLILQDGINQFPGFSPEIQGVYNEPQADGKVKAYGYVLDDESVIKKN |  | 16.0 ± 1.8 | 3 ± 0.1 |

Reference: PMC8928434, “Production of Putrescine and Cadaverine by Paucilactobacillus wasatchensis” (Frontiers in Microbiology, 2022)
